Source: the supplement of paper PMC11246515
± gives the standard deviation of the averaged measurements.

Test: total protein half-life in vivo (active degradation + dilution); higher = more stable protein
[1] = E. coli NCM3722 delta-clpP delta-lon delta-hslV, growth: N-lim chemostat, doubling time 6 h
[2] = E. coli NCM3722 delta-clpP, growth: N-lim chemostat, doubling time 6 h
[3] = E. coli NCM3722 delta-hslV, growth: N-lim chemostat, doubling time 6 h
[4] = E. coli NCM3722 delta-lon, growth: N-lim chemostat, doubling time 6 h
[5] = E. coli NCM3722 delta-smpB, growth: N-lim chemostat, doubling time 6 h
[6] = wild type E. coli NCM3722, growth: C-lim chemostat, doubling time 6 h
[7] = wild type E. coli NCM3722, growth: C-lim chemostat, doubling time 12 h
[8] = wild type E. coli NCM3722, growth: N-lim chemostat, doubling time 6 h
[9] = wild type E. coli NCM3722, growth: N-lim chemostat, doubling time 12 h
[10] = wild type E. coli NCM3722, growth: P-lim chemostat, doubling time 6 h
[11] = wild type E. coli NCM3722, growth: P-lim chemostat, doubling time 12 h
[12] = wild type E. coli NCM3722, growth: C-lim chemostat, doubling time 3 h

Sequence | total protein half-life in vivo [1] [h] | total protein half-life in vivo [2] [h] | total protein half-life in vivo [3] [h] | total protein half-life in vivo [4] [h] | total protein half-life in vivo [5] [h] | total protein half-life in vivo [6] [h] | total protein half-life in vivo [7] [h] | total protein half-life in vivo [8] [h] | total protein half-life in vivo [9] [h] | total protein half-life in vivo [10] [h] | total protein half-life in vivo [11] [h] | total protein half-life in vivo [12] [h]
MGYLNNVTGYREDLLANRAIVKHGNFALLTPDGLVKNIIPGFENCDATILSTPKLGASFVDYLVTLHQNGGNQQGFGGEGIETFLYVISGNITAKAEGKTFALSEGGYLYCPPGSLMTFVNAQAEDSQIFLYKRRYVPVEGYAPWLVSGNASELERIHYEGMDDVILLDFLPKELGFDMNMHILSFAPGASHGYIETHVQEHGAYILSGQGVYNLDNNWIPVKKGDYIFMGAYSLQAGYGVGRGEAFSYIYSKDCNRDVEI | 4.66 ± 0.65 | 4.57 ± 0.21 | 4.56 ± 0.21 | 4.35 ± 0.076 | 4.52 ± 0.48 | 6.13 ± 0.5 | 10.8 ± 1.2 | 4.4 ± 0.1 | 7 ± 0.45 | 5.21 ± 0.26 | 11.1 ± 0.86 | 
MKQALRVAFGFLILWASVLHAEVRIVIDSGVDSGRPIGVVPFQWAGPGAAPEDIGGIVAADLRNSGKFNPLDRARLPQQPGSAQEVQPAAWSALGIDAVVVGQVTPNPDGSYNVAYQLVDTGGAPGTVLAQNSYKVNKQWLRYAGHTASDEVFEKLTGIKGAFRTRIAYVVQTNGGQFPYELRVSDYDGYNQFVVHRSPQPLMSPAWSPDGSKLAYVTFESGRSALVIQTLANGAVRQVASFPRHNGAPAFSPDGSKLAFALSKTGSLNLYVMDLASGQIRQVTDGRSNNTEPTWFPDSQNLAFTSDQAGRPQVYKVNINGGAPQRITWEGSQNQDADVSSDGKFMVMVSSNGGQQHIAKQDLATGGVQVLSSTFLDETPSLAPNGTMVIYSSSQGMGSVLNLVSTDGRFKARLPATDGQVKFPAWSPYL [P0A855] | 5.6 ± 0.21 | 6.39 ± 0.61 |  | 6.28 ± 0.33 | 6.07 ± 0.73 | 6.59 ± 0.57 | 11.3 ± 0.41 | 6.31 ± 0.17 | 13.8 ± 1.4 | 5.89 ± 0.3 | 13.05 ± 0.13 | 3.14 ± 0.04
MSTITLLCIALAGVIMLLLLVIKAKVQPFVALLLVSLLVALAAGIPAGEVGKVMIAGMGGVLGSVTIIIGLGAMLGRMIEHSGGAESLANYFSRKLGDKRTIAALTLAAFFLGIPVFFDVGFIILAPIIYGFAKVAKISPLKFGLPVAGIMLTVHVAVPPHPGPVAAAGLLHADIGWLTIIGIAISIPVGVVGYFAAKIINKRQYAMSVEVLEQMQLAPASEEGATKLSDKINPPGVALVTSLIVIPIAIIMAGTVSATLMPPSHPLLGTLQLIGSPMVALMIALVLAFWLLALRRGWSLQHTSDIMGSALPTAAVVILVTGAGGVFGKVLVESGVGKALANMLQMIDLPLLPAAFIISLALRASQGSATVAILTTGGLLSEAVMGLNPIQCVLVTLAACFGGLGASHINDSGFWIVTKYLGLSVADGLKTWTVLTTILGFTGFLITWCVWAVI |  |  |  |  |  |  | 15.2 |  |  |  |  | 
MKTTAKLSFMMFVEWFIWGAWFVPLWLWLSKSGFSAGEIGWSYACTAIAAILSPILVGSITDRFFSAQKVLAVLMFAGALLMYFAAQQTTFAGFFPLLLAYSLTYMPTIALTNSIAFANVPDVERDFPRIRVMGTIGWIASGLACGFLPQILGYADISPTNIPLLITAGSSALLGVFAFFLPDTPPKSTGKMDIKVMLGLDALILLRDKNFLVFFFCSFLFAMPLAFYYIFANGYLTEVGMKNATGWMTLGQFSEIFFMLALPFFTKRFGIKKVLLLGLVTAAIRYGFFIYGSADEYFTYALLFLGILLHGVSYDFYYVTAYIYVDKKAPVHMRTAAQGLITLCCQGFGSLLGYRLGGVMMEKMFAYQEPVNGLTFNWSGMWTFGAVMIAIIAVLFMIFFRESDNEITAIKVDDRDIALTQGEVK |  |  |  |  |  | 4.97 ± 0.24 | 9.17 |  |  |  |  | 
MPEATPFQVMIVDDHPLMRRGVRQLLELDPGSEVVAEAGDGASAIDLANRLDIDVILLDLNMKGMSGLDTLNALRRDGVTAQIIILTVSDASSDVFALIDAGADGYLLKDSDPEVLLEAIRAGAKGSKVFSERVNQYLREREMFGAEEDPFSVLTERELDVLHELAQGLSNKQIASVLNISEQTVKVHIRNLLRKLNVRSRVAATILFLQQRGAQ | 5.05 ± 0.31 | 2.4265 ± 0.00011 | 2.17 ± 0.36 | 4.47 ± 1.4 | 2.02 ± 0.099 | 3.41 ± 0.22 | 5.71 ± 1 | 2.3 ± 0.18 | 2.86 ± 0.24 | 2.62 ± 0.31 | 4.65 ± 0.4 | 2.08 ± 0.15
MNKTLIAAAVAGIVLLASNAQAQTVPEGYQLQQVLMMSRHNLRAPLANNGSVLEQSTPNKWPEWDVPGGQLTTKGGVLEVYMGHYMREWLAEQGMVKSGECPPPYTVYAYANSLQRTVATAQFFITGAFPGCDIPVHHQEKMGTMDPTFNPVITDDSAAFSEQAVAAMEKELSKLQLTDSYQLLEKIVNYKDSPACKEKQQCSLVDGKNTFSAKYQQEPGVSGPLKVGNSLVDAFTLQYYEGFPMDQVAWGEIKSDQQWKVLSKLKNGYQDSLFTSPEVARNVAKPLVSYIDKALVTDRTSAPKITVLVGHDSNIASLLTALDFKPYQLHDQNERTPIGGKIVFQRWHDSKANRDLMKIEYVYQSAEQLRNADALTLQAPAQRVTLELSGCPIDADGFCPMDKFDSVLNEAVK | 5.71 ± 0.47 |  | 6.81 ± 0.17 | 6.9 ± 0.04 | 5.96 ± 0.12 | 6.07 ± 0.17 | 12 ± 1.7 | 6.05 ± 0.63 | 11.1 ± 1.5 | 6.4 ± 1.7 | 12.3 ± 1.5 | 3.51 ± 0.45
MTLRTENLTVSYGTDKVLNDVSLSLPTGKITALIGPNGCGKSTLLNCFSRLLMPQSGTVFLGDNPINMLSSRQLARRLSLLPQHHLTPEGITVQELVSYGRNPWLSLWGRLSAEDNARVNVAMNQTRINHLAVRRLTELSGGQRQRAFLAMVLAQNTPVVLLDEPTTYLDINHQVDLMRLMGELRTQGKTVVAVLHDLNQASRYCDQLVVMANGHVMAQGTPEEVMTPGLLRTVFSVEAEIHPEPVSGRPMCLMR | 5.53 ± 0.17 |  |  |  |  |  |  |  |  |  | 3.42 | 
